This series concerns the molecule itself. In words: crystal structure.

B1: KdpE-E216A (natural protein, E. coli, UniProt P21866 1-225, looked up)
chain: MTNVLIVEDEQAIRRFLRTALEGDGMRVFEAETLQRGLLEAATRKPDLIILDLGLPDGDGIEFIRDLRQWSAVPVIVLSARSEESDKIAALDAGADDYLSKPFGIGELQARLRVALRRHSATTAPDPLVKFSDVTVDLAARVIHRGEEEVHLTPIEFRLLAVLLNNAGKVLTQRQLLNQVWGPNAVEHSHYLRIYMGHLRQKLEQDPARPRHFITATGIGYRFML
B1: the binding result is given as “binds”.

The values above are taken from article PMC4399498 (Nature communications, 2014).
